Results taken from patent US20240352102A1 (UNITED STATES GOVERNMENT AS REPRESENTED BY THE DEPARTMENT …, published 2024).

How the values were obtained:
Assay in all cases: peptide microarray
Peptide_054 = target: T1, Peptide_054
T1 peptide: RLQTAPVPMPDLKNV

Peptide_045 = target: T2, Peptide_045
T2 peptide: PGSRSRTPSLPTPPT

Peptide_067 = target: T3, Peptide_067
T3 peptide: KDNIKHVPGGGSVQI

Peptide_052 = target: T4, Peptide_052
T4 peptide: KSPSSAKSRLQTAPV

Peptide_056 = target: T5, Peptide_056
T5 peptide: MPDLKNVKSKIGSTE

Peptide_074 = target: T6, Peptide_074
T6 peptide: CGSLGNIHHKPGGGQ

Peptide_041 = target: T7, Peptide_041
T7 peptide: KSGDRSGYSSPGSPG

Peptide_071 = target: T8, Peptide_071
T8 peptide: YKPVDLSKVTSKCGS

Peptide_068 = target: T9, Peptide_068
T9 peptide: KHVPGGGSVQIVYKP

Peptide_066 = target: T10, Peptide_066
T10 peptide: KCGSKDNIKHVPGGG

Peptide_037 = target: T11, Peptide_037
T11 peptide: KTPPAPKTPPSSGEP

Peptide_038 = target: T12, Peptide_038
T12 peptide: APKTPPSSGEPPKSG

Measured: binding result

B1: mAb TRC35 (antibody, V domains shown)
VH: QVQLQQPGTELVKPGASVKLSCKASGYTFTSYWLQWVKQRPGQGLEWIGEIDPSDSYTNYNQKFKGKATLTVDTSSSTAYMQLSSLTSEDSAVYYCATLTGSWGQGTTLAVSS
VL: DVLLTQTPLSLPVSLGDQASISCRASQSIVDSNGNTFLEWYLQKSGQSPKVLIYKVSNRFSGVPDRFSGRGSGTDFTLKISRVEAEDLGVYYCFQGSHVPYTFGGGTKLEIK
notes: Mouse hybridoma monoclonal antibody raised in tau knockout mice against tau/poly(A) RNA complexes; IgG1 isotype, kappa light chain; also called TRC35 monoclonal antibody; hybridoma clone #35
no binding (tested: 1 ug/ml): all assays above
